In publication PMC4498498:

Legend:
Assay in all cases: purified protein
Settings in all cases: 0.2 mM NADPH, 50 mM Tris-HCl pH 7.5, 1 mM DTT, 25°C
[1] = tested on: CC(=O)C(C)O
[2] = substrate: CC(=O)C(C)O; remark: listed apart in the source
[3] = substrate: CCC(C)=O
[4] = substrate: CC(C)=O

“CaADH (Clostridium autoethanogenum DSM 10061; S199R)” was tested, and the Km [1] was 34 ± 5 mM, the kcat [1] was 95 ± 4 s⁻¹ and the kcat/Km [1] was 2800 M⁻¹ s⁻¹.

B1: CaADH (Clostridium autoethanogenum DSM 10061) (protein)
chain: KGFAMLGINKLGWIEKKNPVPGPYDAIVHPLAVSPCTSDIHTVFEGALGNRENMILGHEAVGEIAEVGSEVKDFKVGDRVIVPCTTPDWRSLEVQAGFQQHSNGMLAGWKFSNFKDGVFADYFHVNDADMNLAILPDEIPLESAVMMTDMMTTGFHGAELADIKMGSSVVVIGIGAVGLMGIAGSKLRGAGRIIGVGSRPVCVETAKFYGATDIVNYKNGDIVEQIMDLTHGKGVDRVIMAGGGAETLAQAVTMVKPGGVISNINYHGSGDTLPIPRVQWGCGMAHKTIRGGLCPGGRLRMEMLRDLVLYKRVDLSKLVTHVFDGAENIEKALLLMKNKPKDLIKSVVTF
Work on B1 yielded a Km [2] of 98 ± 10 mM, a kcat [2] of 150 ± 8 s⁻¹ and a kcat/Km [2] of 1600 M⁻¹ s⁻¹. It also gave a Km [3] of 1.8 ± 0.2 mM, a kcat [3] of 37 s⁻¹ and a kcat/Km [3] of 21000 M⁻¹ s⁻¹. It also gave a Km [4] of 1.0 ± 0.1 mM, a kcat [4] of 55 s⁻¹ and a kcat/Km [4] of 55000 M⁻¹ s⁻¹.
